For one molecule, binding result and Kd results are on record in PMC4919518.

The target of one data set is T1, RsAgo delP45-W63 (Rhodobacter sphaeroides (ATCC 17025D-5), UniProt A4WYU7 1-777, del45-63).
T1 sequence: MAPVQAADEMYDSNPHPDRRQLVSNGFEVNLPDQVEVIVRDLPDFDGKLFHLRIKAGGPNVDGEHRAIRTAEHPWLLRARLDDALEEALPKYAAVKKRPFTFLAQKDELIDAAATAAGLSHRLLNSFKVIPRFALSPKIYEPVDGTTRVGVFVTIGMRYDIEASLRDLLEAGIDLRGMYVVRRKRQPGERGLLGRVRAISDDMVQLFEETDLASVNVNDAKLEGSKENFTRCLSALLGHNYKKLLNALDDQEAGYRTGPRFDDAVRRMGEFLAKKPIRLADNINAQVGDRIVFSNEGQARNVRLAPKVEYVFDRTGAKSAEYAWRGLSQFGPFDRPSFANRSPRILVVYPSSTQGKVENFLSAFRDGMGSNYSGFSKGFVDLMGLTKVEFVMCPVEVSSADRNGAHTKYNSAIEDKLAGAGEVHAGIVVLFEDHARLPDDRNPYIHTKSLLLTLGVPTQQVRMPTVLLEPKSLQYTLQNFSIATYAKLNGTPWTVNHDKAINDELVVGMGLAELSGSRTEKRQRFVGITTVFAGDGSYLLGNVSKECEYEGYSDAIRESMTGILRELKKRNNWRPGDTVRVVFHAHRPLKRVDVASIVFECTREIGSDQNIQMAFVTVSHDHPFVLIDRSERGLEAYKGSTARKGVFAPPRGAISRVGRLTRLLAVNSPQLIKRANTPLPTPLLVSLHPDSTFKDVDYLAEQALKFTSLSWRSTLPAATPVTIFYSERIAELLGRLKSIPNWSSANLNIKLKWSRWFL
The data set is described as follows: fluorescence polarization; 5 mM Mg2+; same binding capacity as WT; FP: 20 mM HEPES-KOH pH 7.5, 200 mM NaCl, 5 mM MgCl2, 0.01 mg/ml E. coli total tRNA, 0.01% NP-40, 10 pM probe, 25 C; EMSA: 20 mM HEPES-KOH pH 7.5, 200 mM NaCl, 5.

The next data set has as its target T2, RsAgo Y463A/K467A (Rhodobacter sphaeroides (ATCC 17025D-5), UniProt A4WYU7 1-777, Y463A;K467A).
T2 sequence: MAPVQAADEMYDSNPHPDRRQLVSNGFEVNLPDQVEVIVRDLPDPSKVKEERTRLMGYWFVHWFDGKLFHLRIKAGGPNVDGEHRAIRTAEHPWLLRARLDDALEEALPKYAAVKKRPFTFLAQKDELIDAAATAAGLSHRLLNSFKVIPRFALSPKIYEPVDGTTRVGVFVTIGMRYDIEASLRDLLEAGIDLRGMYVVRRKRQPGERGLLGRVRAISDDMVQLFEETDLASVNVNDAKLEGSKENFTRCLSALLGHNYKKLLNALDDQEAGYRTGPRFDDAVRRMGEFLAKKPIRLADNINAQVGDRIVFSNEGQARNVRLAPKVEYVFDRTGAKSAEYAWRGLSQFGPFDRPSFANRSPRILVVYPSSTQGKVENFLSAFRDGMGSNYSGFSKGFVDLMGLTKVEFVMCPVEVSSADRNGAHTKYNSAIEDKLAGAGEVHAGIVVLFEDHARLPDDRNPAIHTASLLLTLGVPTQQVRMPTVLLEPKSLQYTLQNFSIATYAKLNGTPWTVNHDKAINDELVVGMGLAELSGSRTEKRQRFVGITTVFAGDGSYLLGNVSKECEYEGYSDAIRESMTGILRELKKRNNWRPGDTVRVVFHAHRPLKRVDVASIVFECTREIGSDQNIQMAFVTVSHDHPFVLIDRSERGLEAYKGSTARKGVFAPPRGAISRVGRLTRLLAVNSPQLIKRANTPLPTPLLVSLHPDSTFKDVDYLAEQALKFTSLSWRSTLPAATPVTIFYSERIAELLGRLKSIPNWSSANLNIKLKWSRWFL
Nature of the data set: fluorescence polarization; 5 mM Mg2+; FP: 20 mM HEPES-KOH pH 7.5, 200 mM NaCl, 5 mM MgCl2, 0.01 mg/ml E. coli total tRNA, 0.01% NP-40, 10 pM probe, 25 C; EMSA: 20 mM HEPES-KOH pH 7.5, 200 mM NaCl, 5.

The target in the next data set is T3, RsAgo delL777 (Rhodobacter sphaeroides (ATCC 17025D-5), UniProt A4WYU7 1-776, del777-777).
T3 sequence: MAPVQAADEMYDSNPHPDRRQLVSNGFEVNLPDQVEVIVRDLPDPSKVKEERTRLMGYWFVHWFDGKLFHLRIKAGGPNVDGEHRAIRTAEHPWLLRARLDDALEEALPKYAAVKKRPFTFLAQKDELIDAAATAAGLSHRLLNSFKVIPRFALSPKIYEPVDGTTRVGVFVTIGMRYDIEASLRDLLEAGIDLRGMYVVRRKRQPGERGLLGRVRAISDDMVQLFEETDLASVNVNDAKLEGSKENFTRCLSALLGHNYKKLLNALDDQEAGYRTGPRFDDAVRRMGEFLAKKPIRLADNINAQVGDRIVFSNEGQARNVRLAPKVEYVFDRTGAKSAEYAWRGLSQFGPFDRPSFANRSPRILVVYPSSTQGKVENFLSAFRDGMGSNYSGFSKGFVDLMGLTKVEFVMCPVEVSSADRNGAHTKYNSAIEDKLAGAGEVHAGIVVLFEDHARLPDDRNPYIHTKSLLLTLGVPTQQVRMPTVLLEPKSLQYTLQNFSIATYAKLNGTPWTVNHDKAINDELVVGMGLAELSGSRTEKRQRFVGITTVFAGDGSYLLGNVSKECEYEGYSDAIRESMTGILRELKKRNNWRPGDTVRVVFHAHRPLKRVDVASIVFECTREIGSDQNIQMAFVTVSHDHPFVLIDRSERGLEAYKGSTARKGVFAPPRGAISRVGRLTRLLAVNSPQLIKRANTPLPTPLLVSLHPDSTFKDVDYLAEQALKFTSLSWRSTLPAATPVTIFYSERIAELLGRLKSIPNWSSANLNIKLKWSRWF
Described as above.

B1: 5'P-RNA (5'U-RNA), FAM (ssRNA)
RNA: UUACAACCUACUACCUCG
modifications: 5'-phosphate
Regarding B1, in the data set with RsAgo delP45-W63, the binding result was “binds”. Besides, the results for the Kd with RsAgo Y463A/K467A and with RsAgo delL777 were 1.7 ± 0.123 µM and 0.0387 ± 0.0021 µM, respectively.
